The numbers were not newly measured in paper PMC11003968, “Identification of small molecules affecting the interaction between human hemoglobin and Staphylococcus aureus IsdB hemophore” (Scientific Reports, 2024), which cites them from elsewhere.

In data set [1] the target is oxyhemoglobin dimer (Homo sapiens) (UniProt P69905).
Data set [2] addresses IsdB (Staphylococcus aureus) (UniProt A7X146). The data set is described as follows: SPR. (In general: Surface plasmon resonance follows binding to a sensor surface in real time, without labels.)

oxyhemoglobin dimer, sequence (P69905 2-142): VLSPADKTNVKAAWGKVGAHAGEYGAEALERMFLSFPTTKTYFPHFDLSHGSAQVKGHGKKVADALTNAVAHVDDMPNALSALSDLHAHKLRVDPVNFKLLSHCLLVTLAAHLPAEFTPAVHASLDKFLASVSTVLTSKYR
oxyhemoglobin dimer, sequence (P68871 2-147, further chain): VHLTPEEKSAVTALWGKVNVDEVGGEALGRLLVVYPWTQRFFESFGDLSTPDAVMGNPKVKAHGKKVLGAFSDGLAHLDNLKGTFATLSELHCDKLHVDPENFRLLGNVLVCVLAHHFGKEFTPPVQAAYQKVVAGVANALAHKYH
hemoglobin, sequence (P69905 2-142): as the sequence (P69905 2-142) above
hemoglobin, sequence (P68871 2-147, further chain): as the sequence (P68871 2-147, further chain) above
IsdB (Staphylococcus aureus), sequence (A7X146 41-613): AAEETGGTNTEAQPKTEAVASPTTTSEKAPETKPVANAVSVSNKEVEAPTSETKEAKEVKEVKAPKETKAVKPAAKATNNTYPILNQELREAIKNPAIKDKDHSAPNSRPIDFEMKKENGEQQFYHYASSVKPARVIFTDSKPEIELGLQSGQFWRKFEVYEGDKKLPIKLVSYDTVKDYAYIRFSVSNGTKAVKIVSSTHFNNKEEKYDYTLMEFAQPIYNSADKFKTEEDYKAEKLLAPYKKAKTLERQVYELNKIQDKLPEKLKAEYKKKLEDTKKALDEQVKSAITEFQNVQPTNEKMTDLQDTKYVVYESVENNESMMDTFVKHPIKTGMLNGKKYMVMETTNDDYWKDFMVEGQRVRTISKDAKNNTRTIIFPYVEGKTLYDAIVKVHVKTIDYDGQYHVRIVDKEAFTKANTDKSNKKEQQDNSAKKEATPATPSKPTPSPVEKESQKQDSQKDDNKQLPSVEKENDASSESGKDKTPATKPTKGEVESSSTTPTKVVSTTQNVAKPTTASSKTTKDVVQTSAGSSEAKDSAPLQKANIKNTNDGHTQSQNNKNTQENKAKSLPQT

For orientation: Kd means the concentration at which binding is half-saturated. “oxyhemoglobin dimer (from UniProt P69905)”: in data set [1], the Kd was 250 nM.

Take hemoglobin (from UniProt P69905): in data set [2], the Kd is 35 nM.
